The source of these data is publication PMC6688830, “A Ubiquitin-Binding Domain that Binds a Structural Fold Distinct from that of Ubiquitin” (Structure(London, England:1993), 2019).

Residue numbers refer to the chain shown, from its start.

Holding throughout (details): both partners purified
The target of assay [1] is T1, KAP1 S33-K434 (human, UniProt Q13263 33-434).
T1 construct: KAP1 (TRIM28), human, UniProt Q13263, residues S33-K434 (RBCC domain); The crystal structures of shorter RBCC constructs show an antiparallel homodimer; also called KAP1 RBCC (S33-K434); KAP1 RBCC; source: E. coli BL-21 CodonPlus (DE3)-RP, purified (Ni-NTA, Ulp1, Mono Q)
The assay is described as follows: ITC; MicroCal ITC200, 20°C; KAP1 RBCC (9-18 μM) in the cell, SMARCAD1 CUE1 or CUE1,2 (90-300 μM) in the syringe; 10 mM Tris-HCl pH 7.9, 100 mM NaCl, 5 mM β-ME; One set of sites model.

For another assay, the target named is T2, KAP1 S33-K434 I379A (human, UniProt Q13263 33-434, I379A).
T2 construct: KAP1 (TRIM28), human, UniProt Q13263, residues S33-K434 (RBCC domain); source: E. coli BL-21 CodonPlus (DE3)-RP, purified (Ni-NTA, Ulp1, Mono Q)
The assay is described as follows: co-IP; purified SMARCAD1 fragments (FLAG-CUE1,2, FLAG-CUE1) and KAP1 RBCC, 9.6μg each in 240μL, 4°C 1 hour; anti-FLAG M2 affinity gel 3 hours.

The target in a further assay is T3, KAP1 S33-K434 L376A (human, UniProt Q13263 33-434, L376A).
T3 construct: KAP1 (TRIM28), human, UniProt Q13263, residues S33-K434 (RBCC domain); source: E. coli BL-21 CodonPlus (DE3)-RP, purified (Ni-NTA, Ulp1, Mono Q)
The assay is described as above.

A further assay concerns the target T4, KAP1 S33-K434 V380A (human, UniProt Q13263 33-434, V380A).
T4 construct: KAP1 (TRIM28), human, UniProt Q13263, residues S33-K434 (RBCC domain); source: E. coli BL-21 CodonPlus (DE3)-RP, purified (Ni-NTA, Ulp1, Mono Q)
Described as above.

For another assay, the target named is T5, Ubiquitin (UniProt P0CG48 1-76).
T5 construct: ubiquitin, monomeric, the cut product of a ubiquitin precursor; also called mono-Ub; monomeric ubiquitin; source: bought: Boston Biochem (purified recombinant)
In words: ITC; MicroCal ITC200, 10°C; 120 μM SMARCAD1 CUE1 or CUE1,2 in the cell, 9.8 mM mono-Ub in the syringe; 10 mM Tris-HCl pH 7.9, 100 mM NaCl, 5 mM β-ME; One set of sites model.

In assay [2] the target is T1, KAP1 S33-K434. In words: co-IP; purified SMARCAD1 fragments (FLAG-CUE1,2, FLAG-CUE1) and KAP1 RBCC, 9.6μg each in 240μL, 4°C 1 hour; anti-FLAG M2 affinity gel 3 hours.
For another assay, the target named is T6, FLAG-SMARCAD1 (WT) (human, UniProt Q9H4L7 1-1026).
T6 construct: SMARCAD1, human, UniProt Q9H4L7, full length; also called wild-type SMARCAD1; pET28a-SUMO-F-SMARCAD1; source: E. coli BL-21 CodonPlus (DE3)-RIL, purified (HisTrap, Ulp1, heparin, ProSwift SAX)
T6 sequence (looked up): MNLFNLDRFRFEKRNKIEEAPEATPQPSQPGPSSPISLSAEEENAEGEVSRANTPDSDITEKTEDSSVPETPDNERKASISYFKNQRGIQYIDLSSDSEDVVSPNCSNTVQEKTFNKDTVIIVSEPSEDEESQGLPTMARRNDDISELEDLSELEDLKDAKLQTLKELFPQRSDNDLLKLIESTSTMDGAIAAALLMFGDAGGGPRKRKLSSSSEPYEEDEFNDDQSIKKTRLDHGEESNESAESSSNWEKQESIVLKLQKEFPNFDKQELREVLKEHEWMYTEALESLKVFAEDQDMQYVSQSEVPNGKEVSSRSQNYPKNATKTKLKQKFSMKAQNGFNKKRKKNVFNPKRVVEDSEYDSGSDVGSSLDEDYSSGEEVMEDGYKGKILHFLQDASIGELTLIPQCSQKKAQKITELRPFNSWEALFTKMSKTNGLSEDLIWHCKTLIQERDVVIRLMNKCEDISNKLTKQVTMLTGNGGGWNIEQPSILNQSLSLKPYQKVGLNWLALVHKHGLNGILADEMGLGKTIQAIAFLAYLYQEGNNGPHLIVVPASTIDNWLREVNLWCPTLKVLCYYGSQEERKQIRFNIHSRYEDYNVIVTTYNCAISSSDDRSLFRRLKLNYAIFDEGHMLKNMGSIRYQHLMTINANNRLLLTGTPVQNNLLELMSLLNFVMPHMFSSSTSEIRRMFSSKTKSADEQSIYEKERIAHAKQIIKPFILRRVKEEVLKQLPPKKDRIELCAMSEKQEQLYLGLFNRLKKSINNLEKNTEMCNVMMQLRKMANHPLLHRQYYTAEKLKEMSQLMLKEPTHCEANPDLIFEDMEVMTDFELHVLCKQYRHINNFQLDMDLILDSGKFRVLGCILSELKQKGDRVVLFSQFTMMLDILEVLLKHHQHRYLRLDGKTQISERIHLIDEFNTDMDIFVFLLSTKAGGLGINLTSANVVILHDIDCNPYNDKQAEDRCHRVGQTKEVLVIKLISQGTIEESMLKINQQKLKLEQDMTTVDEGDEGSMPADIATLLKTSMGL
In words: co-IP; purified full-length SMARCAD1 and KAP1 from E. coli, 7μg each in 280μL SK binding buffer, 200mM NaCl, 4°C; immunoprecipitated with anti-FLAG M2 affinity gel.

T3 sequence (Q13263 33-434 L376A): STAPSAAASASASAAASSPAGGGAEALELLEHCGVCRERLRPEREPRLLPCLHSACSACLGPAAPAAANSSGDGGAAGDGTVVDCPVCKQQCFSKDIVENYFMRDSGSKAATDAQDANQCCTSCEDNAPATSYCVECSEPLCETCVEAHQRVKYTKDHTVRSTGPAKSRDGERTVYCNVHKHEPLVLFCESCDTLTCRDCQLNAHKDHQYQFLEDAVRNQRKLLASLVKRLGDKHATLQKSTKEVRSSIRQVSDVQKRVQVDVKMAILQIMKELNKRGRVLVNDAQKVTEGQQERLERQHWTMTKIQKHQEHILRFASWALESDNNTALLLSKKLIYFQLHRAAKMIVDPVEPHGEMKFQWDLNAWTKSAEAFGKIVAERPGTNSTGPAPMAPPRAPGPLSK
T4 sequence (Q13263 33-434 V380A): as the sequence (Q13263 33-434 L376A) above, with A344L, V348A counted along it
T2 sequence (Q13263 33-434 I379A): as the sequence (Q13263 33-434 L376A) above, with A344L, I347A counted along it

B1: FLAG-CUE1,2 (WT) (domain or fragment, human, UniProt Q9H4L7 95-347, looked up)
chain: SSDSEDVVSPNCSNTVQEKTFNKDTVIIVSEPSEDEESQGLPTMARRNDDISELEDLSELEDLKDAKLQTLKELFPQRSDNDLLKLIESTSTMDGAIAAALLMFGDAGGGPRKRKLSSSSEPYEEDEFNDDQSIKKTRLDHGEESNESAESSSNWEKQESIVLKLQKEFPNFDKQELREVLKEHEWMYTEALESLKVFAEDQDMQYVSQSEVPNGKEVSSRSQNYPKNATKTKLKQKFSMKAQNGFNKKRKKN
notes: SMARCAD1, human, UniProt Q9H4L7, residues S95-N347 (both CUE domains); also called SMARCAD1 CUE1,2 (S95-N347); wild-type CUE1,2; source: E. coli BL-21 CodonPlus (DE3)-RIL, purified (Ni-NTA, Ulp1, Mono Q if required)
Consider B1, for which the Kd with KAP1 S33-K434 [1] was around 0.21 µM; with Ubiquitin, around 389 µM. The binding result with KAP1 S33-K434 I379A, with KAP1 S33-K434 L376A and with KAP1 S33-K434 V380A was “binds” in each case.

B2: FLAG-CUE1,2 Q171A (domain or fragment, human, UniProt Q9H4L7 95-347, looked up)
chain: B1 chain with Q77A
notes: SMARCAD1, human, UniProt Q9H4L7, CUE1,2 fragment S95-N347; source: E. coli BL-21 CodonPlus (DE3)-RIL, purified (Ni-NTA, Ulp1, Mono Q if required)
Take B2: the binding result with KAP1 S33-K434 [2] was “binds”.

B3: FLAG-CUE1,2 L195A (domain or fragment, human, UniProt Q9H4L7 95-347, looked up)
chain: B1 chain with L101A
notes: as for B2
Turning to B3, in the assay with KAP1 S33-K434 [2], the binding result is reported as “binds”.

B4: FLAG-CUE1,2 P170A (domain or fragment, human, UniProt Q9H4L7 95-347, looked up)
chain: B1 chain with P76A
notes: as for B2
For the molecule B4, the binding result with KAP1 S33-K434 [2] is recorded as “binds”.

B5: FLAG-CUE1,2 D188A (domain or fragment, human, UniProt Q9H4L7 95-347, looked up)
chain: B1 chain with D94A
notes: as for B2
Turning to B5, the binding result with KAP1 S33-K434 [2] is “binds”.

B6: FLAG-CUE1,2 L196A (domain or fragment, human, UniProt Q9H4L7 95-347, looked up)
chain: B1 chain with L102A
notes: as for B2
Regarding B6, the binding result with KAP1 S33-K434 [2] is “binds”.

B7: FLAG-CUE1,2 E167A (domain or fragment, human, UniProt Q9H4L7 95-347, looked up)
chain: B1 chain with E73A
notes: as for B2
For B7, in the assay with KAP1 S33-K434 [2], the binding result is on record as “binds”.

B8: FLAG-CUE1,2 K166A (domain or fragment, human, UniProt Q9H4L7 95-347, looked up)
chain: B1 chain with K72A
notes: as for B2
As to B8, the binding result with KAP1 S33-K434 [2] was “binds”.

B9: FLAG-CUE1,2 K161A (domain or fragment, human, UniProt Q9H4L7 95-347, looked up)
chain: B1 chain with K67A
notes: as for B2
With B9, the binding result with KAP1 S33-K434 [2] is listed as “binds”.

B10: FLAG-CUE1,2 A192G (domain or fragment, human, UniProt Q9H4L7 95-347, looked up)
chain: B1 chain with A98G
notes: as for B2
For B10, the binding result with KAP1 S33-K434 [2] was “binds”.

B11: HA-KAP1 (natural protein, human, UniProt Q13263 1-835, looked up)
chain: MAASAAAASAAAASAASGSPGPGEGSAGGEKRSTAPSAAASASASAAASSPAGGGAEALELLEHCGVCRERLRPEREPRLLPCLHSACSACLGPAAPAAANSSGDGGAAGDGTVVDCPVCKQQCFSKDIVENYFMRDSGSKAATDAQDANQCCTSCEDNAPATSYCVECSEPLCETCVEAHQRVKYTKDHTVRSTGPAKSRDGERTVYCNVHKHEPLVLFCESCDTLTCRDCQLNAHKDHQYQFLEDAVRNQRKLLASLVKRLGDKHATLQKSTKEVRSSIRQVSDVQKRVQVDVKMAILQIMKELNKRGRVLVNDAQKVTEGQQERLERQHWTMTKIQKHQEHILRFASWALESDNNTALLLSKKLIYFQLHRALKMIVDPVEPHGEMKFQWDLNAWTKSAEAFGKIVAERPGTNSTGPAPMAPPRAPGPLSKQGSGSSQPMEVQEGYGFGSGDDPYSSAEPHVSGVKRSRSGEGEVSGLMRKVPRVSLERLDLDLTADSQPPVFKVFPGSTTEDYNLIVIERGAAAAATGQPGTAPAGTPGAPPLAGMAIVKEEETEAAIGAPPTATEGPETKPVLMALAEGPGAEGPRLASPSGSTSSGLEVVAPEGTSAPGGGPGTLDDSATICRVCQKPGDLVMCNQCEFCFHLDCHLPALQDVPGEEWSCSLCHVLPDLKEEDGSLSLDGADSTGVVAKLSPANQRKCERVLLALFCHEPCRPLHQLATDSTFSLDQPGGTLDLTLIRARLQEKLSPPYSSPQEFAQDVGRMFKQFNKLTEDKADVQSIIGLQRFFETRMNEAFGDTKFSAVLVEPPPMSLPGAGLSSQELSGGPGDGP
notes: KAP1 (TRIM28), human, UniProt Q13263, full length; also called hemagglutinin-tagged KAP1; TRIM28; source: E. coli BL-21 CodonPlus (DE3)-RP, purified (HisTrap, Ulp1, heparin, Sephacryl S-400)
Regarding B11, the binding result with FLAG-SMARCAD1 (WT) is given as “binds”.

B12: FLAG-CUE1 (domain or fragment, human, UniProt Q9H4L7 95-237, looked up)
chain: SSDSEDVVSPNCSNTVQEKTFNKDTVIIVSEPSEDEESQGLPTMARRNDDISELEDLSELEDLKDAKLQTLKELFPQRSDNDLLKLIESTSTMDGAIAAALLMFGDAGGGPRKRKLSSSSEPYEEDEFNDDQSIKKTRLDHGE
notes: SMARCAD1, human, UniProt Q9H4L7, residues S95-E237 (first CUE domain); also called wild-type CUE1 fragment (S95-E237); SMARCAD1 CUE1; source: E. coli BL-21 CodonPlus (DE3)-RIL, purified (Ni-NTA, Ulp1, Mono Q if required)
For the molecule B12, the Kd was around 0.158 µM with KAP1 S33-K434 [1] and around 952 µM with Ubiquitin.
